Data from the nanobody polyreactivity screen of Harvey et al. (2022).

assay: yeast display, Sf9 membrane polyspecificity reagent, FACS + sequencing; frameworks hold sequencing errors
Method in brief: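 Using colony PCR, genes from sorted yeast display clones were amplified, then sequenced on MiSeq at 2 × 250 and filtered by CDR length. The clones had been stained with 10% biotinylated, detergent-solubilized Sf9 membrane reagent for 1 hour at 4 °C and sorted by FACS into low and high (top ~1%) gates on anti-HA and streptavidin fluorescence. Polyreactivity labels come from the gate of origin.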

Row | Sequence | polyreactivity (PSR sort gate)
1 | QVQLVESGGGLVQAGGSLRLSCAASGRILLGNVMGWYRQAPGKERELVAAISIGGNTNYADSVKGRFTISRDNANNTVYLQMNSLKPEDTAVYYCNARSLVFPITFWEYDYWGEGTQVTVSS | low polyreactivity
2 | QVQLVESGGGVVQAGGSLRLSCAASGRIFSSYAMGWYRQAPGKERELVAAITSGGSTDYADSVKGRFSISRDNAKNTVYLQMNSLKPEDTAVYYCAKAFLAPWTYSPYYMFYYWGQGTQVTVSS | low polyreactivity
3 | QVQLVESGGGLVQAGGSLRLSCAASGRTFVINSMGWYRQAPGKERELVAAITWGGGSTYYADSVKGRFTISRDNAKNTVYLQMNSLKPEDTAVYYCATSYSVQYGGSGYYWGQGTQVTVSS | low polyreactivity
4 | QVQLVESGGGLVQAGGSLRLSCAASGFTFDSYAMGWYRQAPGKERELVAAITWSGGSTYYADSVKGRFTISRDNAKNTVYLQMMSLKPEDTAVYYCNVYRYDGDYWGQGTQVTVSS | high polyreactivity
5 | QVQLVESGGGLVQAGGSLRLSCAASGFIFSGNAMGWYRQAPGKERELVAAISWSGTSTFYADSVKGRFTISRDNAKNTVYLQMNSLKPEDTAVYYCAAETYYSYWYRPHYDYWGQGTQVTVSS | low polyreactivity
6 | QVQLQETGGGLVQVGGSQRLSCAASGNIFYNYAMGWYRHAQGKEREFDATINHGTSINDADSVKGRFTISRDNAKNTVYLQMNSLTPEDTAVYYCAADLSWTDNLFYWGQGTQETVSS | low polyreactivity
7 | QVQLVESGGGLVQAGGSLRLSCAASGRTFYSYVMGWYRQAPGKERELVAAINKTGGGTYYADSVKGRFTISRDNAKNTVYLQMNSLKPEDTAVYYCAAETGTGETRYYRYWDYYYWGQGTQVTVSS | high polyreactivity
8 | QVQLVESGGGLVQAGGSLRLSCAASGSIFRYYAMGWYRQAPGKERELVAAITRRGGSTYYADSVKGRFTISRDNAKNTVYLQMNSLKPEDTAVYYCAASHGYQYEYWGQGTQVTVSS | high polyreactivity
9 | QVQLVESGGGLVQAGGSLRLSCAASGSTFAFYAMGWYRPAPGKERELVAAITWDGGTTYYADSVKGRFTIARDNAKNTVYLQMNSLKPEDSAVYYCAADYASVSIYDNVPSAPGYDYWGQGTQVTVSS | low polyreactivity
10 | HVQLQESGGGLVQAGGSLRLSCAASGSIFQATYMGWYRQAPGKEREFVASITYGSITNYADSVKGRFTIGRDNAKDTLYLQMNSLKPEDTAVYYCAVDRHYIPAFHYWGQGTEVTVSS | low polyreactivity
11 | QVQLVESGGALVQAGGSLRLSCAASGNTFQRYTMGWYRQAPGKERELVAAITWSGGNTYYADSVKGRFTISRDNAKNSVYLQMNSLKPEDTAVYDCNADYPTTAYDYWGQGTQVTVSS | low polyreactivity
12 | QVQLVESGGGLVQAGGSIRLSCAASGSTFDYYAMGWYRQAPGKDRELVAAITTSGSSTFYADSVKGRFTIARDNAKNTVYVQMNSLKPEDTADYYCAAVFRWARQRWLDYWGQGTQVTVSS | high polyreactivity
13 | QVQLVESGGGLVQAGGSLRLSCAASGTTFPKYAMGWYRQAPGKERELVAAITRGGRTYYADSVKGRFTISRDNANNTVYLQMNSLKPEDTAVYYCAVVGYARVGMYDYWGQGSQVTVSS | high polyreactivity
14 | QVQLVESGGGLVQAGGSLRLSCAAYGSTFTYYAMGWYRQAPGKERELVAAISSSGGSTYYADSVKGRFTISRDNAKNTVYFQMNSLKPEDTAVYYCAARRKFPYRHDYWGQGTQVTVSS | high polyreactivity
15 | QVQLVESGGGLVQAGGSLRLSCAASGRIFGGNAMGWYRQAPGKERQLVAAISKRGGSTYYADSVKGRFTISRDNAKNTVYLQMNSLKPEDTAVYYCAATPYSDQGLDYGYWGQGTQVTVSS | high polyreactivity
16 | QVQLVESGGGLVHAGGSLRLSCAASGSIFYSNVMGWYRQAPGKERELVAAITRGGGTNYADSVKGRFTISRDNAKNTVYLQMNSLKPEDTAVYYCNRDPQKYRWIPRYDYWGQGTQVTVSS | low polyreactivity
17 | QVQLVESGGGLVQAGGSLRLSCAASGSIFGYNVMGGDRQAPGKEREFVARINYIGSSTYYADSVKGRFTISRDNAKNTVYLQMNSLKPEDTADYYCNADNARGRSGVRRYYWGQGTQVTVSS | high polyreactivity
18 | QVQLVESGGGLVQAGGSLRLSCAATGRTFYPYVMGWYRQAAGKERDLVASITDSGGNTYYADSVKGRFTISRDHAKNTVYLQMNSLKPEDTAVYYCNASFYYPSRRGTFQYNYWGHGTQVTVSS | low polyreactivity
19 | QGQLLESAGGLLQAGGSLRLSSAASGFNFQQYVMGWYRQARGNERELVASISRRGSRTYYADSVKGGFTISRDNAKNTVYLQMNSLKPEDTAVYYCAAPPSTSEGPYGYWGQGTQVSVSS | high polyreactivity
20 | QDQLVESGGGLVKAGGSLRLSCAASGGTFYYYAMGWYRQAPGKERELVAANTRSGGNAYYADSVKARFTISRDNAKNTVYLLLHSLKPEDTAVYYCAAPFVNFVGSLVYAGYDSCGQGTQVTVSS | low polyreactivity
21 | QGQLVESGGGLVQAGGSLRLSCAASGISLKYAMGWYRQAPGKERELVASISSRGTSTYYADSVKGRFTISRDNAMNTVYLQMNSLKPEDTAVYYCNTVPPYWWGYWYKGDHWGQGTQGTVSS | high polyreactivity
22 | QVQLVESGGGLVQAGGSLRLSCAASGRIFRSYAMGWYREAPGKERELVAAISSGGSTNYADSVKGRFTISRDNAKNTVYLQLNSLKPEDTAVYYCAAELWAYTWYWHSDYWGQGTQVTVSS | low polyreactivity

Row | Sequence | polyreactivity (PSR sort gate)
23 | QVQIVESGGGLVQAGGSLRLSCAASGSTSVKYAMGWYRQAPGKERELVAAIRKRGDSTYYADSVKGRFTISRDYAKNTVYLQMNSLKPEDTAVYYFAAQYLRGRGYWGQGTQVTLSS | low polyreactivity
24 | QVQLVESGGGLVQAGGSLRLSCAASGSTFVGNAMGWSRQAPGKERELVAAITSGGSTNYADSVKGRFTISRDNAKNTVYLQMNSLKPEDTAVYYCAKRVSGSPPTGGSLSDSWGQGTQVTVSS | high polyreactivity
25 | QVQLVESGGGLVQAGGSLRLSCAASGRTFSVNAMGWYRQAPGKERELVAAISWDGGSTYYADSVKGRFTISRDNAKNTVYLQMNSLKPVDTAVYYCNKDLYYAYDYWGQGTQVTVSS | low polyreactivity
26 | QVQLVESGRGLVQAGGSLRLSCAASGRTVTNNVLGWYRQAPGKEREFVASISSGGGSTYYADSVKGRFTISRDNANNTVYVQMNSLKPEDTAVYYCAAGYWWRYALYGYWGQGTQVTVSS | low polyreactivity
27 | QVQLVESGGGLVQAGGSLRLSCAASGRIFTYNAMGWYIQAPGKERELVAAISSSVGSTYYADSVKGRFTISRDNAKNTVYLQMNSLKPEDTAVYYCAAYSYRNLRFYYWGQGTQVTVSS | high polyreactivity
28 | QVQLVESGGGLVQAGGSLRLSCAASGSTFYKYAMGWYRPAPGKESELVAAISRGGSTYYADSVKGRFTISRDNAKNTFYLQMNSLKPEDTAVYYCAAETVSYYSKYDYWGQGTQVTVSS | low polyreactivity
29 | QVQLVESGGGLVQAGGSLRLSCAAYGSIFYYYAKGWYRQAPGKERELVAAINGGDTYYADSVKGRFTISRDNAKNTVYLHMNSLKPEDTAVYYCAAEGVTVEWDYDYWGQGTQVTVSS | low polyreactivity
30 | QVQLVESGGGLVQAGGSLRLSCAASGIIFHYYAMGWYRQAPGKERELVATISWDGGNTYYADSVKGRFTISRDNAKNSVYLKMNSLKPEDTAVYYCNVYDKAPAYDYWGQGTQVTVSS | low polyreactivity
31 | QVQLVESGGGLVQAGGSLRLSCAASGFTFTRYAMGWYRQAPGKERELVAAITRSGSSTYYADSVKGRFTISRDNAKNTVYLQMNSLKQEDTAVYYCAARLHSPRYRYDYWGQGNQVTVSS | high polyreactivity
32 | HVQLVESGGGLVQAGGSLRFSCAASVSTLRWNAMGWYRQAPAKEREMVAAITYSGGSTYYADSVKGLFTISRDNAKNTVYLQMNSLKPEDTAVYYCAADSYRYRPGYGPVLYDYWGQGTQVTVSS | high polyreactivity
33 | QVQLVESGGGIVQAGGSLRLSCAASGNTFGYYAIGWYRQAPGKERELVAAINFGGDTSYADSVKGRFTISRDNAKNTVYLQMNSLKPEDTAVYYCNRVPSWRIDYDYWGQGTQVTVSS | low polyreactivity
34 | PVQLVESGGGLVQAGGSLRLSCAASGRTVWNTMGWDRQSPGNERELVAAISYSGGTTYYADSVKGRFTISRDNAKNTVYLQMNSLKPEDTAVYYCNAVTYGWTAYYKGKRYDYWGQGTQVTVSS | high polyreactivity
35 | QVQLVESGGGLVQAGGSLRLSCAASGFTFYRYAMGWYRQAPGKERELVATISASGGSTYYADSVKGRFTISRDNAKNTVYLQMNSVKPEDTAVYYFAVRYKSWYGFNYWGQGTQVTVSS | high polyreactivity
36 | QDQHVESGGGLVQAGGSLRLSCDASGRTFTRYAMGWYRQAPGKERELVAAISRGGSTYYADSVKRRFTISRDNAKNTVYLQMNSLKPEDTAVYYCAARYGTYTAGNYWGQGTQVTVSS | high polyreactivity
37 | QVQLVESGGGLVQAGGSLRLSCAASGSIISGYAMGWYRQAPGTERELVAAISSSGGRTYYADSVKGRFTISRDNAKNTVYLQMNSLKPEDTAVYYCAAAYTITYDYWGQGTQVTVSS | high polyreactivity
38 | QVQLVDSGGGLVQAGGSLRLSCAASGRIFGYNAMGWSRQAPGKERELVAAITSDARTNYADSVKGRFTISRDNAKNTVYLQMISLKPEDTAVYYCAARRYPPRMDYWGHGTQVTVSS | high polyreactivity
39 | QVQLVESGGGLVQAGGRLRLSCAASGRIFTYNAMGWYRQAPGKEREFVAAISSGGSTTYADSVKGRFTISRDNAKNTVYLQMNSLKPEDTAVYYCAAGGCRFAIIEYEYWGQGTQVTVSS | low polyreactivity
40 | QVQLVESGGGLVQAGGSLRLSCAASGTFARYAMGWYRQAPGKERELVAAISRRGGSTYYADSVKGRFTISRDNAKNTVYLQMNSLKPEDTAVYYCAADNTQVRPKYDYWGQGTQVTVSS | high polyreactivity
41 | QVQLVESGGGLVQAGGSLRLSCAASGFIIDGYAMGWYRQAPVKERELVAVISQRGSNTYYADSVKGRFTISRDNAKNTVYLQMNSLKPEDTAVYYCAARYKQGDSTGGRMNYWGQGTQVTVSS | high polyreactivity
42 | QVQLVESGGGLVQAGGSLRLSCAASGRIFRSYAMGWYRQAPGKERELVAAITWSGGSTYYADSVKGRFTISRDNAKNTVYLQMHSLKPEDTAVYYCARVVTKKYSHTGYEYWGQGTQVTVSS | high polyreactivity
43 | QVQLVESGGGLVQAGGSLRLSCAASGSTFYSNAMGWYRQAPGKERELVAGIDTSDGSTNYADSVKGRFTISRDNAKNTVYLQMNSLKPEDTAVYYCAADYTQPGFVSYDYWGQGTQVTVSS | low polyreactivity
